According to the nanobody polyreactivity screen of Harvey et al. (2022):

assay: yeast display, Sf9 membrane polyspecificity reagent, FACS + sequencing; frameworks hold sequencing errors
How it was run: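 Nanobodies came from a synthetic yeast display library in Saccharomyces cerevisiae BJ5465, induced with galactose for 36–48 hours and stained for 1 hour at 4 °C with 10% biotinylated, detergent-solubilized Sf9 membrane reagent. Cells were enriched on streptavidin microbeads and then FACS-sorted, with low and high (top ~1%) gates set on anti-HA fluorescence for expression and streptavidin fluorescence for reagent binding. Each polyreactivity label reflects the gate a clone came from. Genes were amplified by colony PCR, sequenced by MiSeq 2 × 250 and filtered by CDR length.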

Sequence	polyreactivity (PSR sort gate)
QVQLVESGGGLVQAGGSLRLSCAASGFTYRYYTMGLYRQAPGKERELVAAINTSGAGTYYADSVKGRFTISRDNAKNTVYLQMNSLKPEDTAVYYCAATWYGLDYNYWGQGTQVTVSS	high polyreactivity
QVQLVESGGGLVQAGGSLRLSCAASGFTYYVNAMGWYRPAPGKERELDAAISSSGTRTYYADSVKGRFTISRDNAKNTVYLQMNSLKPEDTAVYYCAARGQAYSGDRMYYWGQGTQVTVSS	high polyreactivity
QVQLVESGGGLVQAGGSLRLSCAASGFYFYSYAMGGYRQAPGKERELVAVISGSGGSTYYADSVKGRFTISRDNAKNTVYLQMNSLKPEDTAVYYCAARNQGNIYGYWGQGTQVTVSS	high polyreactivity
QVQLVESGGGLVQAGGSLRLSCAASGFYGNAMGWYRQAPGKERELVAAITWSGGSTYYADSVKGRFTISRDNAKNTVYLQMNSLKPEDTAVYYCNKLQHRKYNGYDYWGQGTQVTVSS	high polyreactivity
QVQLVESGGGLVQAGGSLRLSCAASGFYYGIGWYRQAPGTERELVAVITRGGSTNYADSVKGRFTISRDNAKNTVYLQMISLKPEDTAVYYCAARLYWAYRYGSWGQGSQVTVSS	high polyreactivity
QVQLVESGGGLVQAGGSLRLSCAASGGIFAYNAMGWYRQAPGKERELVASISSGGNTYYADSVKGRFTISRDNAKNTVYLQMNSLKPEDTAVYYCNARFYRSWRRFSREPGYNYWGQGTQVTVSS	high polyreactivity
QVQLVESGGGLVQAGGSLRLSCAASGGIFAYYAMGWYRQAPGKERELVAAITSRGGRTYYADSVKGRFTISRDNAKNTVYLQMNSLKPEDTAVYYCNAERFWPWDYDYWGQGTQVTVSS	high polyreactivity
QVQLVESGGGLVQAGGSLRLSCAASGGIFDINAMGWYRQAPGKERELVAAITQSGGSTYYADSVKGRFTISRDNAKKTVYLQMNSLKPEDTAVYYCAKAVWYQGFDYWGQGTQVTVSS	high polyreactivity
QVQLVESGGGLVQAGGSLRLSCAASGGIFDSYAMGWYRQAPGKERELVAAISWSGDRTYYADSVKGRFTISRDNAKNTVYLQMISLKPEDTAVYYCAADDGYTYGEGYYWGQGTQVTVSS	high polyreactivity
QVQLVESGGGLVQAGGSLRLSCAASGGIFFPNAMGWYRQAPGKERELVAAISWSAGSTYYADSVKGRFTISRDHAKNTVDLQMNSLKPEDTAVYYCPAAGSNYTVWYGYYYWGQGTQVTVSS	low polyreactivity
QVQLVESGGGLVQAGGSLRLSCAASGGIFFSNVMGWYRQAPGKERELVAAITSGDNTNYADSVKGRFTISRDNAKNTVYLQMNSLKPEDTAVYYCNADVASEYSDKYDYWGQGTQVTVSS	low polyreactivity
QVQLVESGGGLVQAGGSLRLSCAASGGIFFSYAMGWYRQAPGKERELVAAIRTNGGTTYYADSVKGRFTISRDNAKNTVYLQMNSLKPEDTAVYYCAAKQFSVTLSNYWGQGTQVTVSS	low polyreactivity
QVQLVESGGGLVQAGGSLRLSCAASGGIFGGYAMGWYRQAPGKDREFVAAISRRGGSTYYADSVKGRFTISRDNAKNTVYLQMNSLKPEDTAVYYCAADRYPSLYDYWGQGTQVTVSS	high polyreactivity
QVQLVESGGGLVQAGGSLRLSCAASGGIFGGYAMGWYRQAPRKERELVATITSGTSTNYADSVKGRFTISRDNAKNTVYLQMNSLKPEDTAVYYCNAGGVYPRFTFLEQGYEMEYWGQGTQVTVSS	low polyreactivity
QVQLVESGGGLVQAGGSLRLSCAASGGIFGHYGMGWYRQAPGQERELVASISWNGGSTYYADSVKGRFTSSRDNAKNTVYLQMNSLKPEDTAVYYCAARAIWLRYVGYTYYYWGQGTQVTVSS	high polyreactivity
QVQLVESGGGLVQAGGSLRLSCAASGGIFGINAMGWYRQAPWKERELVSAINLSGGRTYYADSVKGRFTISRDNSKNTVYLHMNSLKPEDTAVYYCAAYYGYSLYGHYEYWGQGTQVTVSS	high polyreactivity
QVQLVESGGGLVQAGGSLRLSCAASGGIFGKYAMGWYRQAPGKERELVAAITSSGGSTFYADSVKGRFTNSRDNAKNTVYLQMNSLKPEDTAVYYCAARFSSYVRRYYYWGQGTQVTVSS	high polyreactivity
QVQLVESGGGLVQAGGSLRLSCAASGGIFGLYTMGWYRQAPGKERELVAAISKTGGSTYYADSVKGRFTISRDNAKNTVYLQMNSLNPEDTAVYYCAADGPYDDYEYWGQGTQVTVSS	high polyreactivity
QVQLVESGGGLVQAGGSLRLSCAASGGIFGRYAMGWYRQAPGKERELVAAISSRGGSTYYADSVKGRFTISRDNAKNTVYLQMNSLKPEDTAVYYCNALWVSYYTFRMDYWGQGTQVTVSS	high polyreactivity
QVQLVESGGGLVQAGGSLRLSCAASGGIFGYYTMGWYRQAPGKERELVAVITRSGGSTYYADSVKGRFTISRDNAKNTVYLQMNSLKPEDTAVYYCASGWRGGRYRYFAYDYWGQGTQVTVSS	high polyreactivity
QVQLVESGGGLVQAGGSLRLSCAASGGIFGYYTRGWYRQAPGKEREVVAAISRRGGSTYYADSVKGRFTISRDNAKNTVYLQMNSLKPEDTAVYYCAAGLSSGGTHYDYWGQGTQVTVSS	high polyreactivity
QVQLVESGGGLVQAGGSLRLSCAASGGIFIFYAMGWYRQAPGKERELVAAISNVSSTNYADSVKGRFTISRDNAKNTVYLQMNSLKPEDTAVYYCNAVGVPSEYYSWGQGTQVTVSS	low polyreactivity

Sequence	polyreactivity (PSR sort gate)
QVQLVESGGGLVQAGGSLRLSCAASGGIFIRNAMGWYRQAPGKERELVATISNAGSTYADSVKGRFTISRDNAKNTVYLQMNSLKPEDTAVYYCNRDDWTYPVSQGLQEYDYWGQGTQVTVSS	low polyreactivity
QVQLVESGGGLVQAGGSLRLSCAASGGIFKYNAMGWYRQAPGKERELVAAIDTSGGSTYYADSVKGRFTISRDKAKNTVYLQMNSLKPDDTAVYYCAAELCLAQYYYWGQGTQVTVTS	low polyreactivity
QVQLVESGGGLVQAGGSLRLSCAASGGIFKYNAMGWYRQAPGKERELVAAIDTSGGSTYYADSVKGRFTISRDNAKNTVYLQMNSLKPEDTAVYYCAAELGLAQYYYWGQGTQVTVSS	low polyreactivity
QVQLVESGGGLVQAGGSLRLSCAASGGIFKYNAMGWYRQAPGKERELVAAIDTSGGSTYYADSVKGRFTISRDNAKNTVYLQMNSLKPEDTAVYYCARRWSYQRPSFEYDSWGQGTQVTVSS	low polyreactivity
QVQLVESGGGLVQAGGSLRLSCAASGGIFKYNAMGWYRTAPGKERELVAAIRSSGSTNYADSVKGRFTISRDNAKNTVYLQMNSLKPEETAVYYCNVAYGLQPYDYWGQGTQVNVSS	high polyreactivity
QVQLVESGGGLVQAGGSLRLSCAASGGIFLFNAMGWYRQAPGKERELVAAITDGGSTYYADSVKGRFTISRDNAKNTVYLQMNSLKPEDTAVYYCNAEGVSLYGYDSGVDSGEDYWGQGTQVTVSS	low polyreactivity
QVQLVESGGGLVQAGGSLRLSCAASGGIFLGNAMGWYRQAPGKERELVAAISWSGGSTYYADSVKGRFTISRDNAKNTVYLQMNSLKPEDTAVYYCAAAWNRGKYNYYYWGQGTQVTVSS	high polyreactivity
QVQLVESGGGLVQAGGSLRLSCAASGGIFLSNAMGWSRQAPGKERELVAAISRSGGSTYYADSVKGRFTISRDNAKNTVYLQMNSLKPEDTAVYYCAARWTRNYGMNYWGQGTKVTVSS	high polyreactivity
QVQLVESGGGLVQAGGSLRLSCAASGGIFLVYAMGWYRQAPGKERELVAAITPGGSTYYADSVKGRFTISRDNAKNTVYLQMNSLKPEDTAVYYCAKALYRREYSSGGYYRFDYWGQGTQVTVSS	high polyreactivity
QVQLVESGGGLVQAGGSLRLSCAASGGIFPAYAMGWYRQSPGKERELVASISANGGRTYYADSVKGRFTISRDNAKNSVYLQLNSLKPEDTAVYYCNASYRSGSWRFYYWGQGTQVTVSS	high polyreactivity
QVQLVESGGGLVQAGGSLRLSCAASGGIFPQYSMGWYTQAPGKERELVSAISRRGGRTYYADSVKGRFTISRDTAKNTVYLQMNSLKPEDTAVYYCAKRALTYTRYRVIYDYWGQGTQVTVSS	high polyreactivity
QVQLVESGGGLVQAGGSLRLSCAASGGIFPYYVMGWYRQAPGKERELVAAINSGGTTYYADSVKGRFTISRDNAKNTVYLQMNSLKPEDTAVYYCAAYYAGFGYNYWGQGTQVTVSS	low polyreactivity
QVQLVESGGGLVQAGGSLRLSCAASGGIFQGYAMGWYRQAAGKERELVAAITRGGSTNYADSVKGRFTISRDNAKNTVYLQMNSLKPEDTAVYYFAARPRWFKGYDYWGQGTQVTVSS	high polyreactivity
QVQLVESGGGLVQAGGSLRLSCAASGGIFRANTMGWYRQAPGKERELVAVISWSGARTYYADSVKGRFTISRDNAKNTVYLQMNSLKPEDTAVYYCNARVPKLGSMYYWGHGTQVTVSS	high polyreactivity
QVQLVESGGGLVQAGGSLRLSCAASGGIFRGYAMGWYRQAPGKERELVAAISSRDGRTYYADSVKGRFTISRDNEKNTVYLQMNSLKPEDTAVYYCAASSFNNGHRYDYWGQGTQVTVSS	high polyreactivity
QVQLVESGGGLVQAGGSLRLSCAASGGIFRRYAMVWYRQAPGKERELVAGISYSGGSTYYADSVKGRFTISRDNAKNTVYLQMNSLKPEDTAVDYCATVGYVWYRSVNVWSPMDYWGQGTQVTVSS	high polyreactivity
QVQLVESGGGLVQAGGSLRLSCAASGGIFRSYAMGWYRQAPGKETELVAAISWSTVSTYADSVKGRFTISRDNAKNTVYLQMYSLKPEDSAVYYCAASPFEYCYYYYGLYKEYYYWGQGNQVTVSS	low polyreactivity
QVQLVESGGGLVQAGGSLRLSCAASGGIFRSYTMGWYRQAPGKERELVAAISSGASTSYADSVKGRFTISRDNAKNTVYLQMNSLKPEHTAVYYCAVGVLYAGYFYRYRYYYWGQGTQVTVSS	high polyreactivity
QVQLVESGGGLVQAGGSLRLSCAASGGIFRWYVMGWYRPEPGKERDFVAAISQSGGSTYYADSVKGRFTISRDNAKNTVYLQMNCLKPEDTAVYYCAAGFYHYRSFNFDYWGQGTQVTVSS	high polyreactivity
QVQLVESGGGLVQAGGSLRLSCAASGGIFSAYDMAWYRQAPGKERELVAAINSGGSTNYADSVKGRFTISRDNAKNTVYLQMNSLKPEDTAVYYCAAAKVSWFGLKYYYWGQGTQVTVSS	high polyreactivity
QVQLVESGGGLVQAGGSLRLSCAASGGIFSENAMGWYRQAPGKERELVAVITTSGGSTYYADSVKGRFTISRDNAKNTVYLQMNSLKPEDTAVYYCAADVLSWEYDYWGQGTQVTVSS	low polyreactivity
